Results: article doi:10.1101/2022.06.29.498105 (bioRxiv, 2022)

Target: the molecule itself
Experiment: crystal structure

B1: TRIM21 RING domain (domain or fragment)
chain: GSHMASAARLTMMWEEVTCPICLDPFVEPVSIECGHSFCQECISQVGKGGGSVCPVCRQRFLLKNLRPNRQLANMVNNLKEISQEARE
stoichiometry N: 2
